In data set [1] the target is T1, OC2 (CUT-HOX DNA binding region, wild type) (human, UniProt O95948 330-485).
T1 sequence: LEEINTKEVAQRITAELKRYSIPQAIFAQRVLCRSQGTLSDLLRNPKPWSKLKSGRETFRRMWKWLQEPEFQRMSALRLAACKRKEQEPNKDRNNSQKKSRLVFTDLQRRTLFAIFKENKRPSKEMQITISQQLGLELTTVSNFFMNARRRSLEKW
The experiment in a line: ITC; 25 C; ITC: 1X PBS pH 7.4, 0.005% Tween-20, 1 mM beta-ME, 25 C (also 12 and 30 C for heat capacity); BLI: 1X PBS, 0.5 mM TCEP, 0.005% Tween-20. The note with it: protein: recombinant; tags: His6 removed by TEV.

Another data set has as its target T2, OC2 CUT domain (human, UniProt O95948 317-417).
T2 sequence: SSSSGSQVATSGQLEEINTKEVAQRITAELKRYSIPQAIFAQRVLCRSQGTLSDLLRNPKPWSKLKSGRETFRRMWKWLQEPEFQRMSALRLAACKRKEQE
The description is as above. The settings on record: protein: recombinant; tags: His6-MBP, removed by TEV (same protocol as OC2).

The target of another data set is T3, OC2R479 (human, UniProt O95948 330-485, R479A).
T3 sequence: T1 sequence with R150A
Description: ITC; ITC: 1X PBS pH 7.4, 0.005% Tween-20, 1 mM beta-ME, 25 C (also 12 and 30 C for heat capacity); BLI: 1X PBS, 0.5 mM TCEP, 0.005% Tween-20. The note with it: protein: recombinant; tags: His6 removed by TEV.

A further data set addresses T4, OC2N (human, UniProt O95948 330-485, N476A).
T4 sequence: T1 sequence with N147A
The description is as above. The note with it: protein: recombinant; tags: His6 removed by TEV.

The next data set addresses T5, OC2R480 (human, UniProt O95948 330-485, R480A).
T5 sequence: T1 sequence with R151A
The description is as above. The note with it: protein: recombinant; tags: His6 removed by TEV.

A further data set has as its target T6, OC2SQ (human, UniProt O95948 330-485, S364A;Q365A).
T6 sequence: T1 sequence with S35A, Q36A
Described as above. The note with it: protein: recombinant; tags: His6 removed by TEV.

Data set [2] deals with T7, OC2 CUT domain;OC2 HOX domain (human;human, UniProt O95948;O95948 317-417;420-490, |).
T7 sequence 1: T2 sequence
T7 sequence 2: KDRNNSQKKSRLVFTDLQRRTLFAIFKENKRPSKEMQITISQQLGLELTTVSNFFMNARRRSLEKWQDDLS
Description: ITC; CUT and HOX as separate polypeptides; ITC: 1X PBS pH 7.4, 0.005% Tween-20, 1 mM beta-ME, 25 C (also 12 and 30 C for heat capacity); BLI: 1X PBS, 0.5 mM TCEP, 0.005% Tween-20. The settings on record: protein: recombinant;recombinant; copies: 1;1.

Data set [3] concerns the target T8, ONECUT2 (OC2) residues 317-417, containing the CUT domain (Homo sapiens (Human), UniProt O95948).
T8 chain: T2 sequence
Description: ITC (implied; data not shown); absence of DNA.

Substitutions are numbered along the chain they refer to.

Data on 2 molecules can be found in publication PMC11490551, “The homeodomain regulates stable DNA binding of prostate cancer target ONECUT2”.

B1: PEG10 promoter DNA (12mer duplex) (dsDNA)
DNA 1: AGATCGATTTGC
DNA 2: GCAAATCGATCT
For B1, the Kd in data set [1] amounted to 7 ± 2 nM; in the data set with OC2 CUT domain, 2030 ± 262 nM; with OC2R479, 6 nM; in the data set with OC2N, 70 ± 11 nM; with OC2R480, 47 nM; with OC2SQ, 51 ± 9 nM. The Kd in data set [2] turned out to be 1380 ± 279 nM.

B2: ONECUT2 (OC2) residues 420-490, containing the HOX domain (protein)
chain: T7 sequence 2
As to B2, the binding result in data set [3] is “no binding”.
